From publication PMC2156119 (The Journal of Cell Biology, 1999) come the findings set out here.

In general, koff refers to a measure of how fast the partners let go of each other. Read a low koff as a long-lived complex.

Read-outs that look alike come from different tables or passages of the source.

Assay [1] has as its target T1, tubulin heterodimer (bovine tubulin) (bovine, UniProt Q6B856 1-445). Kind of assay: pull-down.
Assay [2] deals with T1, tubulin heterodimer (bovine tubulin). Kind of assay: pull-down. This is another data set of the same source.

B1: Op18-wt-F (oncoprotein 18/stathmin, wild type, COOH-terminal Flag epitope) (natural protein, human, UniProt P16949 1-149, looked up)
chain: MASSDIQVKELEKRASGQAFELILSPRSKESVPEFPLSPPKKKDLSLEEIQKKLEAAEERRKSHEAEVLKQLAEKREHEKEVLQKAIEENNNFSKMAEEKLTHKMEANKENREAQMAAKLERLREKDKHIEEVRKNKESKDPADETEAD
For the molecule B1, the koff in assay [1] turned out to be 0.0025 s⁻¹; in assay [2], 0.01 s⁻¹.
